# Source: publication PMC11573612 (Molecular Therapy, 2024)
# Assays:
# [1] = target: T1, PD-L1 of the PD-1 [Biotinylated]: PD-L1 Inhibitor Screening ELISA Assay Pair (Acro Biosystems EP-101) (UniProt Q9NZQ7 19-238); assay: ELISA; competition: PD-1 [Biotinylated]: PD-L1 Inhibitor Screening ELISA Assay Pair (Acro Biosystems EP-101) with recombinant VSTM2A as inhibitor; conditions: both partners purified
# T1 construct: PD-L1 of a bought ELISA assay pair; The construct is described only by the kit's manufacturer; source: bought: Acro Biosystems (EP-101 assay pair)
# [2] = target: T2, Recombinant human PD-L1 Fc chimera protein (R&D Systems 156-B7) (human, UniProt Q9NZQ7 19-238); assay: ELISA; titration ELISA; 5 μg/mL PD-L1 Fc chimera immobilised on the plate at 4 °C for 12 h, blocked with 5% BSA; VSTM2A serial dilution (start 100 μg/mL) for 2 h at room temperature; fixed with DTSSP; pNPP, OD405; one-site specific binding fit; apparent KD; conditions: both partners purified
# T2 construct: PD-L1, human, recombinant Fc chimera; also called recombinant human PD-L1 chimera protein; source: bought: R&D Systems (156-B7)
# T2 sequence (Q9NZQ7 19-238, change not shown): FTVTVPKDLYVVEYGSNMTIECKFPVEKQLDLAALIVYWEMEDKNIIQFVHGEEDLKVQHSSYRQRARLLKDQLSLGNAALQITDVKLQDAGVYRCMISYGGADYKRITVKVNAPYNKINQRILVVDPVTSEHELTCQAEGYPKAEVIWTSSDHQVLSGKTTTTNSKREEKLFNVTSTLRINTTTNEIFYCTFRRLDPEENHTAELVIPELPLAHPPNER
# T1 sequence (Q9NZQ7 19-238): as the sequence (Q9NZQ7 19-238, change not shown) above
binder,measurement,setting,value
"Recombinant human VSTM2A His-tag protein (R&D Systems 10037-VT-050, carrier-free) (ligand, UniProt Q8TAG5 25-236, looked up, VSTM2A, human, recombinant; also called recombinant VSTM2A; VSTM2A recombinant protein; source: bought: R&D Systems (10037-VT-050, carrier-free version)) SQAKFTEFPRNVTATEGQNVEMSCAFQSGSASVYLEIQWWFLRGPEDLDPGAEGAGAQVELLPDRDPDSDGTKISTVKVQGNDISHKLQISKVRKKDEGLYECRVTDANYGELQEHKAQAYLKVNANSHARRMQAFEASPMWLQDMKPRKNVSAAIPSSIHGSANQRTHSTSSPQVVAKIPKQSPQSGARIATSHGLSVLLLVCGFVKGALL",IC50,[1],4.51 nM
same,Kd,[2],0.7 to 2.5 nM
